Laboratory results: the supplement of paper PMC10126150
± gives the standard deviation of the averaged measurements.

System: ATP
Test: switch fluorescence ratio, 500 uM ATP over buffer (Cy3 cluster intensity, sum of 5 cycles each) (fold (ratio)); higher = stronger signal-on switching upon ATP binding; sequences stand for … in TCGTCGGCAGCGTCAGATGTGTATAAGAGACAGTTTTTTTTTTTTTTTTTTTTTTTTT…TC
Conditions: aptamer strand: ATP DNA aptamer (quencher-CACCTGGGGGAGTATTGCGGAGGAAGG + anchor), 100 nM annealed; ATP concentration: 500 uM
Procedure, shortened: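 Per cluster, summed Cy3 intensity from the target cycles was divided by that from the buffer cycles to give the fluorescence ratio, then averaged per switch-domain sequence. Clusters outside 100-1000 RFU were excluded. The Cy3-labelled switching-strand clusters, on a modified Illumina MiSeq flow-cell, were annealed to 100 nM quencher-labelled ATP aptamer and imaged in selection buffer, then after 15 min with 500 uM ATP at 22 °C, for five cycles with NaOH stripping and re-annealing between them.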
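Further: ATP exposure 15 min at 22 °C before imaging.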

TTGTGCCGGG
switch fluorescence ratio: 0.9391 ± 0.0045

GGAGTACTGT
switch fluorescence ratio: 1.02 ± 0.013

GCAGGGCGGG
switch fluorescence ratio: 0.99 ± 0.011

GGCTGAAGGG
switch fluorescence ratio: 0.996 ± 0.014

GCAGTTTGTT
switch fluorescence ratio: 0.978 ± 0.019

AAATGACGTT
switch fluorescence ratio: 0.9688 ± 0.0078

TGACGATAGG
switch fluorescence ratio: 0.995 ± 0.013

TTTTGGAGTA
switch fluorescence ratio: 1.02 ± 0.047

TGGGCAGGGT
switch fluorescence ratio: 1.02 ± 0.016

CACATTGTAG
switch fluorescence ratio: 1.007 ± 0.0086

TAAGTGAAAG
switch fluorescence ratio: 0.986 ± 0.022

GCCGGCAATT
switch fluorescence ratio: 1.01 ± 0.015

GATTTTGTTA
switch fluorescence ratio: 1.01 ± 0.025

GCTATAATCG
switch fluorescence ratio: 1.073 ± 0.0027

GGTAGTCTTT
switch fluorescence ratio: 0.996 ± 0.02

CCTGTGGGGG
switch fluorescence ratio: 0.993 ± 0.028

TTTGGGCTTG
switch fluorescence ratio: 1.013 ± 0.0054

CGTAGGTGCA
switch fluorescence ratio: 1.05 ± 0.022

ATTGGATCGG
switch fluorescence ratio: 0.9956 ± 0.0095

TTATTTGATA
switch fluorescence ratio: 1 ± 0.034

GGGTATAGGA
switch fluorescence ratio: 0.944 ± 0.033

AAAGTAAAGT
switch fluorescence ratio: 1.01 ± 0.028

TTTGTTTCGT
switch fluorescence ratio: 1.03 ± 0.11

GGTGTGCCAT
switch fluorescence ratio: 0.9897 ± 0.0069

CAGCGCCGGG
switch fluorescence ratio: 0.994 ± 0.017

GTTCCGGTTT
switch fluorescence ratio: 1.01 ± 0.034

TGCTTGGGTC
switch fluorescence ratio: 1.01 ± 0.028

CGCGCGTCGG
switch fluorescence ratio: 0.978 ± 0.021

AACTCGGAAT
switch fluorescence ratio: 1.03 ± 0.028

AGTTGCTCCT
switch fluorescence ratio: 0.986 ± 0.024

AGTTTTGAAG
switch fluorescence ratio: 0.9906 ± 0.0096

GTTACAGTGG
switch fluorescence ratio: 1 ± 0.061

TATCCTGGCG
switch fluorescence ratio: 1.03 ± 0.057

AATATTTATT
switch fluorescence ratio: 1.02 ± 0.0091

TATCTGGGTG
switch fluorescence ratio: 1.06 ± 0.029

TAAGTGACAA
switch fluorescence ratio: 1.05 ± 0.019

TATAAAGTTT
switch fluorescence ratio: 1.01 ± 0.0081

GGGTTAGAGA
switch fluorescence ratio: 0.9668 ± 0.0032

CGGGGTGTTT
switch fluorescence ratio: 1.012 ± 0.0055

TAGGTTGGTG
switch fluorescence ratio: 1 ± 0.036

ATATATCGGG
switch fluorescence ratio: 0.999 ± 0.013

GAAGGAAAGA
switch fluorescence ratio: 1.02 ± 0.037

TGGTAATTAG
switch fluorescence ratio: 0.979 ± 0.014

TAGGTAGTCT
switch fluorescence ratio: 1.02 ± 0.015

ATATAAAACG
switch fluorescence ratio: 0.983 ± 0.018

TGAGGGAGCA
switch fluorescence ratio: 1.01 ± 0.11

TGTGGGATGG
switch fluorescence ratio: 1 ± 0.028

ATGGTGAAGG
switch fluorescence ratio: 1.01 ± 0.066

AAGGTTAATT
switch fluorescence ratio: 1 ± 0.022

GTCAGAGCTA
switch fluorescence ratio: 1.01 ± 0.025

TTCGGGTCCT
switch fluorescence ratio: 1.02 ± 0.031

GGTAAGATAG
switch fluorescence ratio: 1.01 ± 0.017

AGCTTTAGAC
switch fluorescence ratio: 1.09 ± 0.021

TACTCTGGTG
switch fluorescence ratio: 1.43 ± 0.019

GGTCGCTTTT
switch fluorescence ratio: 0.9949 ± 0.0043

AGCTCTGGCC
switch fluorescence ratio: 0.961 ± 0.04

CATGAGAAGG
switch fluorescence ratio: 1.0186 ± 0.001

TCTTTGGGAT
switch fluorescence ratio: 0.962 ± 0.033

CAAAATTTCG
switch fluorescence ratio: 1.016 ± 0.0015

ATTACGGTCA
switch fluorescence ratio: 1.02 ± 0.038

GCGTGGGAGG
switch fluorescence ratio: 1.018 ± 0.0053

TTTAACAACT
switch fluorescence ratio: 1.01 ± 0.017

AGGTAGAGAG
switch fluorescence ratio: 0.992 ± 0.038

TTAGGGTATG
switch fluorescence ratio: 1.03 ± 0.029

CAGGTGCGTT
switch fluorescence ratio: 1.58 ± 0.028

ACCATAATGG
switch fluorescence ratio: 1.021 ± 0.01

GCGGTTCGTA
switch fluorescence ratio: 0.9699 ± 0.0018

TTTGTGCCGG
switch fluorescence ratio: 1.012 ± 0.007

GGGGAAAACA
switch fluorescence ratio: 1 ± 0.014

CGAAAAGAAT
switch fluorescence ratio: 1.02 ± 0.029

GCTTAAAGAC
switch fluorescence ratio: 1.1 ± 0.013

TTAGGTGCAA
switch fluorescence ratio: 1.17 ± 0.11

AAGAGGAGAG
switch fluorescence ratio: 1.036 ± 0.0073

GGGATTCGTC
switch fluorescence ratio: 0.994 ± 0.02

TAGAGGATCA
switch fluorescence ratio: 1 ± 0.056

GTTATATGGA
switch fluorescence ratio: 0.996 ± 0.018

CCACGCTCGC
switch fluorescence ratio: 2.33 ± 0.21

CCTGAGGTTC
switch fluorescence ratio: 1.03 ± 0.061

TTTTGGGTGC
switch fluorescence ratio: 1.08 ± 0.089

TGGTGTAAGT
switch fluorescence ratio: 1.007 ± 0.0052

TAAAGGTATC
switch fluorescence ratio: 0.9977 ± 0.0048

TTTGATCCTG
switch fluorescence ratio: 0.9711 ± 0.0081

CTATCGGTGA
switch fluorescence ratio: 0.9767 ± 0.0019

TTGCGTAAAA
switch fluorescence ratio: 0.961 ± 0.047

ACAGGATGGT
switch fluorescence ratio: 0.998 ± 0.024

CCACGTGAGG
switch fluorescence ratio: 1.03 ± 0.012

GGGAGGTCAT
switch fluorescence ratio: 0.9731 ± 0.0065

GCGAGCGTCC
switch fluorescence ratio: 1.025 ± 0.0023

GTAGTCGGAT
switch fluorescence ratio: 1.002 ± 0.0021

AGGGAAGGTT
switch fluorescence ratio: 0.982 ± 0.022

TTATCAAGGG
switch fluorescence ratio: 0.975 ± 0.025

TGGTAAACGT
switch fluorescence ratio: 1.05 ± 0.026

CGGGTTTTAC
switch fluorescence ratio: 1.01 ± 0.039

ACTGAGCCTG
switch fluorescence ratio: 1.056 ± 0.0083

AGGGGGAGCA
switch fluorescence ratio: 0.9697 ± 0.0045

TTTTTGGCGT
switch fluorescence ratio: 1.02 ± 0.033

GAAGGGGGGC
switch fluorescence ratio: 1.05 ± 0.18

TTGCTTCTAG
switch fluorescence ratio: 0.979 ± 0.043

AAATATTTAT
switch fluorescence ratio: 0.971 ± 0.018

GCCTTGATAG
switch fluorescence ratio: 0.981 ± 0.0086

GATAATTTCT
switch fluorescence ratio: 0.9886 ± 0.0046

TCTAAGCCAT
switch fluorescence ratio: 1.05 ± 0.017

AGGCTAGCGG
switch fluorescence ratio: 1.01 ± 0.019

TCAAGGAGTT
switch fluorescence ratio: 0.9773 ± 0.0047

GTTTCAAGAT
switch fluorescence ratio: 0.994 ± 0.044

AACCCCCGTT
switch fluorescence ratio: 1.07 ± 0.09

ACAGGTATTA
switch fluorescence ratio: 0.996 ± 0.017

AAGGGGGATT
switch fluorescence ratio: 1.01 ± 0.044

TGGCGAAGTT
switch fluorescence ratio: 0.997 ± 0.024

GGTGGGATCA
switch fluorescence ratio: 1.09 ± 0.18

TTTGCTCAGG
switch fluorescence ratio: 1.09 ± 0.037

TTTCGTTTTA
switch fluorescence ratio: 0.996 ± 0.033

ATTTGGGTTA
switch fluorescence ratio: 1.01 ± 0.019

CAGTCTAAGT
switch fluorescence ratio: 1.02 ± 0.014

ATAAATGTGT
switch fluorescence ratio: 1.01 ± 0.041

GCGTTTGAGG
switch fluorescence ratio: 0.981 ± 0.017

TTCGGGGTAG
switch fluorescence ratio: 0.963 ± 0.048

CTGTGGGCTG
switch fluorescence ratio: 0.989 ± 0.04

GATAGTGCTG
switch fluorescence ratio: 1.05 ± 0.12

AGATTGTTGG
switch fluorescence ratio: 0.989 ± 0.019

GGAGAATATG
switch fluorescence ratio: 1.038 ± 0.0095

AGTCGGGAGA
switch fluorescence ratio: 1.01 ± 0.015

TGCAGTCTAG
switch fluorescence ratio: 1.07 ± 0.15

CAGTTATCGT
switch fluorescence ratio: 0.986 ± 0.016

TCTTTGTTAC
switch fluorescence ratio: 1.05 ± 0.022

AGAATGATCG
switch fluorescence ratio: 0.994 ± 0.033

GGTGTTGTCT
switch fluorescence ratio: 1.031 ± 0.0061

GAGCGGGGTG
switch fluorescence ratio: 1 ± 0.021

TAAGTATGCC
switch fluorescence ratio: 0.963 ± 0.06

TTTTTACTCG
switch fluorescence ratio: 0.9965 ± 0.005

AGATGCATGG
switch fluorescence ratio: 1.02 ± 0.025

TTAGCGAAGG
switch fluorescence ratio: 1.003 ± 0.0046

GGCTGTGTTA
switch fluorescence ratio: 0.9958 ± 0.0024

GGTGGGATTC
switch fluorescence ratio: 1.01 ± 0.014

TCTGTCTGAG
switch fluorescence ratio: 0.988 ± 0.027

CGGGCTAACA
switch fluorescence ratio: 0.972 ± 0.017

GCTAAGTTTA
switch fluorescence ratio: 0.996 ± 0.025

CGGTATGGCT
switch fluorescence ratio: 0.9689 ± 0.0062

ATCCTTGCG
switch fluorescence ratio: 1.022 ± 0.0053

AATTTGGGCG
switch fluorescence ratio: 1 ± 0.04

TCAGGGGGCT
switch fluorescence ratio: 1.03 ± 0.088

TGGTCTATGC
switch fluorescence ratio: 1.05 ± 0.012

GGATGAATTG
switch fluorescence ratio: 1.01 ± 0.018

GCACACAAAA
switch fluorescence ratio: 1.05 ± 0.012

GCTCGAAATG
switch fluorescence ratio: 1.07 ± 0.031

TTTAAAGATG
switch fluorescence ratio: 0.999 ± 0.018

TCAAGCCATT
switch fluorescence ratio: 0.989 ± 0.022

TAATAGATCC
switch fluorescence ratio: 1.01 ± 0.067

TTATGGGCTT
switch fluorescence ratio: 1.27 ± 0.42

CCGTCTAATA
switch fluorescence ratio: 1.42 ± 0.49

TTTATTGAGC
switch fluorescence ratio: 0.989 ± 0.039

TAGGGGCGTG
switch fluorescence ratio: 0.998 ± 0.039

GATCAGCCCC
switch fluorescence ratio: 1.02 ± 0.031

TGGTTCCAGT
switch fluorescence ratio: 1.003 ± 0.0058

CAGAAAAAAC
switch fluorescence ratio: 1.05 ± 0.035

GATTAAAAGG
switch fluorescence ratio: 1.017 ± 0.0067

TTGTTCGACT
switch fluorescence ratio: 1.02 ± 0.016
